# From patent US20190151346A1, “COMBINATIONS THERAPIES FOR THE TREATMENT OF CANCER” (INSERM (INSTITUTE NATIONAL DE LA SANTÉ ET DE LA RECHERCHE …, priority 2016, published 2019)
# B1: IL-17B: cytokine, product of the human IL-17B gene; ligand of IL-17RB (protein, UniProt Q9UHF5 21-180, looked up)
# Interleukin-17B: QPRSPKSKRKGQGRPGPLAPGPHQVPLDLVSRMKPYARMEEYERNIEEMVAQLRNSSELAQRKCEVNLQLWMSNKRSLSPWGYSINHDPSRIPVDLPEARCLCLGCVNPFTMQEDRSMVSVPVFSQVPVRRRLCPPPPRTGPCRQRAVMETIAVGCTCIF
# B2: IL-17E: pro-inflammatory cytokine, product of the human IL-17E gene, also named IL-25 (protein, UniProt Q9H293 33-177, looked up)
# Interleukin-25: YSHWPSCCPSKGQDTSEELLRWSTVPVPPLEPARPNRHPESCRASEDGPLNSRAISPWRYELDRDLNRLPQDLYHARCLCPHCVSLQTGSHMDPRGNSELLYHNQTVFYRRPCHGEKGTHKGYCLERRLYRVSLACVCVRPRVMG
# Columns and labels:
# Format in all cases: cell-based
# EGFR [1] = test: Immunofluorescence microscopy: localization of EGFR; conditions: MDA-MB468; 10 ng/ml, 2 hours; FIG. 4A, FIG. 7
# Experimental: (§1) BT20 and MDA-MB468 triple negative (HER2-, ER-, PR-) were obtained from American Type Culture Collection (ATCC N°HTB19, and ATCC N°HTB132, respectively). The LumB, and Her2-, ER-, PR-negative IJG-1731 cell line was previously established at the laboratory as described (Mombelli et al. Sci Rep. 2015 Jul. 8; 5:11874.) BT20 and IJG-1731 cells were grown in complete RPMI-1640 media with L-glutamine, supplemented with 10% fetal calf serum (FCS) and penicillin—streptomycin solution (100 μg/ml each) (Life technology, Saint-Aubain, France). MDA-MB468 cells were grown in a complete DMEM-F12 media with glutamine, 10% FCS and penicillin—streptomycin. All cells were maintained in a humidified 5% CO2 atmosphere at 37° C. All experiments were conducted with cells at confluency and starved for an overnight.
# Cells (4.10^3) were grown on Lab-Tek chambers slide in their respective complete culture medium for 24 hours then starved for an overnight. Cells were then stimulated with IL-17E (long/ml), EGF (10 ng/ml) or a combination of both for 2 hours at 37° C., washed, and fixed with 4% paraformaldehyde (PFA)-PBS solution at 4° C. […] Slides were mounted with mounting medium containing Dapi then visualized with a Leica DMRB fluorescence microscope and images analysis was performed with the Archimed Software (Microvision).
# Src = test: Tyrosine phosphorylation by Western blotting: Src phosphorylation in TNBC cell lines
# Experimental: as §1
# (§2) Cells (3×10^5) were seeded in 6-well plates in complete medium for 24 hours then starved for another overnight. Cells were then stimulated with IL-17E (10 ng/ml), EGF (10 ng/ml), or a combination of both for 30 min in serum-free medium. Cells were then lysed in 1% Triton X100 buffer and left on ice for 1 hours. Protein samples were then subjected to 8% SDS-PAGE. Western blotting using specific antibodies assessed then the phosphorylation of the various kinases.
# EGFR [2] = test: Tyrosine phosphorylation by Western blotting: EGFR phosphorylation in TNBC cell lines; conditions: IJG-1731, BT-20 and MDA-MB468; 10 ng/ml; FIG. 1
# Experimental: BT20 and MDA-MB468 triple negative (HER2-, ER-, PR-) were obtained from American Type Culture Collection (ATCC N°HTB19, and ATCC N°HTB132, respectively). […] MDA-MB468 cells were grown in a complete DMEM-F12 media with glutamine, 10% FCS and penicillin—streptomycin. All cells were maintained in a humidified 5% CO2 atmosphere at 37° C. All experiments were conducted with cells at confluency and starved for an overnight.
# as §2
# STAT3 [3] = test: Tyrosine phosphorylation by Western blotting: STAT3 phosphorylation in TNBC cell lines; conditions: 10 ng/ml
# Experimental: as §1, §2
# PYK-2 = test: Tyrosine phosphorylation by Western blotting: PYK-2 phosphorylation in TNBC cell lines; conditions: three cell lines; 10 ng/ml; FIG. 1
# Experimental: as §1, §2
# EGFR [4] = test: Cellular fractionation and Western blotting: EGFR and pY1086EGFR translocation to the nucleus; conditions: MDA-MB468 cytoplasmic and nuclear fractions; FIG. 4A
# Experimental: as §1
# (§3) Cells (3×10^5) were seeded in 6-well plates in complete medium for 24 hours then starved for another overnight. Cells were stimulated for 2 hours at 37° C. with IL-17E (10 ng/ml), EGF (long/ml), or a combination of both as indicated. Cells were then washed with PBS and lysed in a lysis buffer (HEPES 10 mM, MgCl2 15 mM KCl 10 mM, DTT 0.5 mM, PMSF 0.2 mM, 1 mM Na3VO4, 10 mM NaF, 0.5% Nonidet P-40). […] Protein concentrations were determined by using Bradford method. […]
# STAT3 [5] = test: Cellular fractionation and Western blotting: STAT3 and pSTAT3 translocation to the nucleus; conditions: MDA-MB468 fractions
# Experimental: as §1, §3
Molecule,translocation of EGFR (immunofluorescence) (EGFR [1]),"phosphorylation of Src at Y416 at suboptimal concentrations (Src; MDA-MB468, IL-17E 1 ng/ml alone or EGF 0.1-1 ng/ml alone, FIG. 3)","phosphorylation of Src at Y416 (Src; three cell lines, 10 ng/ml, FIG. 1)",intensity of induced EGFR phosphorylation (EGFR [2]),"phosphorylation of STAT3-α and -β at Y705 (STAT3 [3]; IJG-1731 and BT20 cell lines, FIGS. 1A and B)",phosphorylation of STAT3-α and -β (STAT3 [3]; MDA-MB468 cell line),phosphorylation of PYK2 at Y402 (PYK-2),translocation of non-phosphorylated EGFR form to the nucleus (EGFR [4]),translocation of phosphorylated EGFR (pY1086EGFR) to the nucleus (EGFR [4]),phosphorylation of STAT3α and β (STAT3 [5])
B1,induced a translocation from the membrane to cytoplasm with a strong perinuclear reorganization,,,,,,,,,
B2,induced the translocation of EGFR to the nucleus but to a lower extends compared to EGF,failed to induce any significant phosphorylation,induced the phosphorylation,comparable to that induced by EGF,induced considerable phosphorylation,less evident,induced the phosphorylation,fairly translocate,failed to induce its significant translocation to the nucleus,induced the phosphorylation
